Test: soluble on expression in E. coli; label from the status in PepcDB or PDB records

## MRGSHHHHHHTDPALRAKKIAIVGAGPTGIYTLFSLLQQQTPLSISIFEQADEAGVGMPYSDEENSKMMLANIASIEIPPIYCTYLEWLQKQEDSHLQRYGVKKETLHDRQFLPRILLGEYFRDQFLRLVDQARQQKFAVAVYESCQVTDLQITNAGVMLATNQDLPSETFDLAVIATGHVWPDEEEATRTYFPSPWSGLMEAKVDACNVGIMGTSLSGLDAAMAVAIQHGSFIEDDKQHVVFHRDNASEKLNITLLSRTGILPEADFYCPIPYEPLHIVTDQALNAEIQKGEEGLLDRVFRLIVEEIKFADPDWSQRIALESLNVDSFAQAWFAERKQRDPFDWAEKNLQEVERNKREKHTVPWRYVILRLHEAVQEIVPHLNEHDHKRFSKGLARVFIDNYAAIPSESIRRLLALREAGIIHILALGEDYKMEINESRTVLKTEDNSYSFDVFIDARGQRPLKVKDIPFPGLREQLQKTGDEIPDVGEDYTLQQPEDIRGRVAFGALPWLMHDQPFVQGLTACAEIGEAMARAVVKPASRARRRLSFDGLCGR
  soluble on expression in E. coli: soluble

## MSISWGAQYPKLKTNLRLGINRLQLLGKKKTEMAMKARTEIADYIAANKPDRARIRVEHIIREDYVVEAFEILEMYCDLLLARFGLIEQMKTLDDGIAEAVISIMWAAPRLATDIAEFKTISDQLTIKYGKPFAEAARANQLEFPARVNPKIISKLGAAAPPKLLVERYMIEIAAAAGVPFVPDPDVMREDEVHQAEQILIDFKNAGGNGPSGPDGPPPPPSNPYGGSGNDNGSSGGGGGYGWNLENQSAIGSGVMPHGTAIGGGVQPVSNFIPPPPNRHPNEPPQDDENIYDHIPDVSGGNIYEVPSRDHYDFPPDAFNEEPPKTNPTTGVINLPKIGPNGLPIYPGQQQPKGPGGAQAYPALSQRNSLVNPNLQPNHPTAPPQSLRKPDDFSDLSFPEPPSSFVGGNNKPGGPGGNNGGGAGNGGFDDFDDLARRFEELKKIK
  soluble on expression in E. coli: not soluble

## MLDDVRLLANGLLQLGQSLREFVHKTKSQTNDIFQKLNIFDRSFYQLSVVTSEIKEEEEKLKGLSQPITVSIHQPEQRAKHTKEA
  soluble on expression in E. coli: not soluble

## TPVLIRQLANKDRAREFSFLKDLGKDIAHFRFLGSFSTHAKVHDQLMDIDLHNRMAYIALAYDNDELTEIGVARYGAYEGDAHCEFAIAVSEKWQRRGVATALLKRLMETATKEGFSKISSMDASKNLAMDGLATSMGFTCRVDEKHGPRIFHEYVLVQ
  soluble on expression in E. coli: not soluble

## MGSDKIHHHHHHMLHLNLLQVFISVAENSSFTLAGSEMHRTQSAISMKIKRLEEILGVPVFERSGKSIELTKEGAIFLTHSRRILQLVDEAMSAVGAVRKSNVVRLGCVEDYAVRTIPKILVDFWVEHPDVHIEMGTGDSASLLDRLGDDFDVVLAEHPLNSGEGEVVCTDSLVWGASANHSPHLQEPIPVAFRSQGALERQWACSALNAAGRPWRLACLSAGIGTLQTAVDAGLAVGVFKASTLAGALNRLTPADNFPQLPDVEMALHVMNDGFSQPSIMQLVKKLRESLQRPQLAAAHE
  soluble on expression in E. coli: not soluble

## MPKVRTKDLIEQFQLELISGEEGIHRPIDTSDLSRPGIEMAGFFTYYPADRVQLLGKTELTFFDTLTSDQKQERMKALCTEETPCIIVTRNQDVPDELLQASRESGMPLLRSSQTTTRLSSRLTNYLEGKLAPTTAVHGVLVDIYGVGVLITGQSGVGKSETALELVKRGHRLVADDSVEIRQEDEDMLVGSSPDLIEHLLEIRGLGIINVMTLFGAGAVRNYKRITLVINLEIWDQKKNYDRLGLDEEKMKIIDTELTKITLPVRPGRNLAVIIEVAAMNFRLKRMGVNAAQQFSERLMSAIELGNQE
  soluble on expression in E. coli: not soluble

## AGDIAIIGLAGRYPKAANIHEFWNNLKEGKDCVSEIPESRWDWQRLEGITSPSGKDISKWGGFIDDPDCFDPQFFRITPREAETMDPQERLFLETCWETIEDAGYTPKTLAKPKGRNKRQHVGVFAGVMHKDYTLVGAEEASAENVFPLSLNYAQIANRVSYFCNFHGPSMAVDTVCSSSLTAVHLALESIRHGECDVALAGGVNLSLHPNKYMTYGVWDMFSTDGHCRTFGKDGDGYVPAEGIGAVLLKPLRQAEEDGDRIYAVIKGSAVNHVGTVSGISVPSPVSQADLIETCLEKTGIDPRTISYVEAHGTGTSLGDPIEIQGLVKAFRQYTQDRQFCSIGSVKSNIGHAESAAGISGLSKVALQLHHQKLVPSLHSEELNPYVDFEKSPFYVQHETETWKQPVIKENGEDVPYPRRAGISSFGATGSNAHIILEEH
  soluble on expression in E. coli: soluble

## MGSDKIHHHHHHEATETQNEKVKVKVETVSVQDVEQLSEFTATVEANIKNNIAPQTPFRIEKIFAEVGDHVKAGQLLAKMDATSLKQAKIQLDNQEIEFKRIDELYKVGGASKSAWDAQKTSLEVARETYKNLVENTQLLSPISGIVTARNYDSGDMYSGGNPIYTVEEIRPVKLMVNVSESLFTKVKKGHEVDIRLDVYGDEVFKGKVNLVYPTIDPATRTFPVEIKIANSDERVRPGMFARVTMSFGHMDHVVAPDRSIVKQSGAGDRYIYVCKDGKVSYQKVKLGRRMGDKYEIISGVEDGDQVVITGQSRLTNGMEVEIENE
  soluble on expression in E. coli: not soluble

## MSLDYGINFWSDNDFIIEDGQVKINYKTKPAIIDIVKKVREEGYRGPLLLRFPHLIKKQVDKIFTHFETSIKQYHYKGQFKAVFPLKVNQFPNFVLPLVELSQNRCYGLEAGSKAELIIAMAYTNKGSPITVNGFKDKEMISLGFIAANMGHEITLTIEGLNELETIIEVAEEMGKPCPNIGLRIRLHSSGIGIWAKSGGINSKFGLTSTELLEGIRLLEKHKLIEKFTMIHFHIGSQISDISPLKKAMREAGNIYAELRKMGAKNLKSVNIGGGLAVEYTQHEGSPNRNYTLDEFAGDVVFSLKEIAKNKKEPEPDIYIESGRYIAASHALLVAPVLELFSQEYDEKALHLKDKNPQLIEELNELYNTVNEKYAIEYLHDSLDHMESLLTLFDLGYIDLQDRSNTEILVHLIIKKVIKILKHKNHSDIIRIQEQVQERYLLNCSFFQSLPDYWGLEQSFPVMPLDRLNKRPTRSASLWDITCDSDGEIGFDLNKPLFLHDVDVTTEEYFLGFFLVGAYQEVLGMRHNLFTHPTELSVEFEEDGTHSVTNLLEAQTILDVLDDLDYDEGHHHHHH
  soluble on expression in E. coli: not soluble

## MGSDKIHHHHHHMSKIEELPPSDTDDHSYSSKPGDVFLAFVDAPVKETDDILVEDSFIGGEPKWLHPDSEPPAELLKCGACKSADNMKLLLQAFSPLDDEQMSAIQQRLGINNMSYINPQDDRVLYVFLCTECQRKGNSVRCIRGVKKNKNVDSLSEKMASTSLEKDFQINPFDLSNNSDSKCNAFSSNPFGGANANPFGADSINSNISQSKDEGKKKESATVSAKTARKLHDLQKDKEYDGNKCFKSCLLYVEEETFKNKKPAHLQLPKNLKIDKEALDLTGDEDLEKDPIKLDPRTEKLSKFLDDDTFQKFQEVVGYNPLQVLRYDLGGKPLLYAETKVDILSTVPRPGYNPSSQRIFEMQLMPKMIFDLEEVVSVDNGMEWGTILVFTDVENYMPEFDEHGVGYVEECVKVQWESRT
  soluble on expression in E. coli: not soluble

## MNKRIVICADGTWNRPEKDLKVDFPTNVLRLARAISPIAADGKPQQVFYDWGVGSYYDEVIGGATGRGLHKNIMDGYRYIVQNYSPGDEIYLFGFSRGAYTVRCLCGLINNCGILKRPEARLIQQAFDHYKKSSAPFAPSGDKSVEFRHEHCHESREIKFVGVWDTVGAMGIPISFLGLFEDKDEFYDTKIGRNVRVARHALAIDEHRSDFEPTIWQLRDNMDMQQVWFAGAHSNVGGSYLPDKDGSLLSDNALAWMIAEAERFNLSLEPHLTAGLRPNPLATLHDSRRSFYRIKQPYLRPLDPDVAPVLLHRSVKVRWEQDPKYRPKNLQAYLEKFGWPQELIDKLAAALEHHHHHH
  soluble on expression in E. coli: soluble

## MGSDKIHHHHHHMKMNWTGAAHQLNKQGKAYVIATIVGVTGSTPRNSGTKMVITHDDIFDTIGGGHLEHKVIKHAHQLLMAGDDCQQLEHFQLGAQLGQCCGGNASVLFESFSASGVNIMLFGAGHVGKALMPILAGLPCSITWVDSRADQFPDDAGNYHNVTTLVSENPAEEVALMPTNSYYIVMTHNHQLDFEISHNTLKRADFAYLGLIASDTKWRRFQQRFQHRDIAKSLVEKMNCPIGLPQVQGKLPMEVAVSVAGEIIQLYQAELASQALANPSANKQKDAKPQSTKQGIAWQELKSLMTEEVS
  soluble on expression in E. coli: not soluble

## MSLDISFQIQDAVASVIRAPLASPFRIATGQHDELENVFLKLTTRDGVSGYGEAAVASHITGETVPGTLANLQNAAAALRGQTVDDAESACRQFAAAFAGNHAGLAALEMALLDLSSRVRGIPFYRLFAPVAALEPRLAFSTDITVVIGSLDEARATAREFASRGFKAFKIKIGRDEQLDLARVLAVHEIAPDSQIILDANMGFSAGSMLAFLDRLAAKGVRPVLLEQPVPKMDWDGLSEITAALTGSETLVCADESVGSLADARRAIDSNAVSAINVKFMKSGILEGAEIARLAASRGIRLMLGAMMESALAVTASAHFAAGLACFDYLDMDTTFFLKGELAHSPYLDEHGRFDLHDAGPGIGVEPRFSEGHHHHHH
  soluble on expression in E. coli: soluble

## MSLTKEPILELADMSDFEQLIRQHPEKIIILDFYATWCGPCKAIAPLYKELATTHKGIIFCKVDVDEAEDLCSKYDVKMMPTFIFTKNGDAIEALEGCVEDELRQKVLEHVSAQ
  soluble on expression in E. coli: not soluble

## MKDNLKEARRYLNNAKEMLSQKAKKEGKFYQDKKYIRLAGHAAYSGVLIALDNVLGNKDSGRKSVDWYKSELAKLDKKALTAFNGAYETLHLAMSYDGNIVANVSKSGIELADSIITWAETRTAAA
  soluble on expression in E. coli: not soluble

## MKKLTFEQLRSVQMSILDRVHLFCERHDLEYSLAGGTLLGAIRHKGYIPWDDDIDIMMPREDYEYLLQNFAKEYPDFTFFNLDTKHNPYPFLFSKLSLNDSVISNGRIKGVGINIDIFPIDSLGKEKGAAKLRFSLMKAINFFARIQRSRHDRANPIVNIAFRLFQKCLKLLPKKWFLSAIKGLCSTCSVNDDGYAVSIGSSYLAKEFTESSLYHDYTSCPFEDRQYKCIARYDDYLSMIYGDYMQLPKEQDRENHDNVGFIKEHLLPMLEHHHHHH
  soluble on expression in E. coli: not soluble

## MSLASAMASSALREATCTMTRLAADVAASVSSIFSCKDSAGPRPVVPATKTTSTPLDVMFFTWFAKSSGSSLPPLKVVMTGATISIDSTRGALKKLARKGIKGWLNQYMATIKEIEPIVLYEQETDARWASYSILVRVVTSDGRVSYGEAVPTLRILPVVSAVRQTARAFLGRDPHEISAAFYEWYRQDFFLSRSFESATALSAIDMALWDLKARELGAPLYELLGGKLRDRVKVYANGWYGGCRDPQCFAEKAKEVVARGYDALKFDPFGPSFNSITSEELRRAEEAVAAVRDAVGDDVDILIEHHGRFNANAAVEIAKRFEPYRPYFMEEPLHHEDIEGYRKYRSLTSARIAMGERLISAKEALQYLVEGLVDVIQPDACNIGGVTGSMKVAALAEAFSVEVSYHNAYGPVQFALEVQLSAVTPTLYRLESFYDYWPQWKRDLIGDPFRLSQSSVEVPRGPGIGVAVNERVLEKYRAEPSEIPVGEEPVWVVRGTWREGHHHHHH
  soluble on expression in E. coli: not soluble

## ISTEEAAPDGPPMDVTLQPVTSQSIQVTWKAPKKELQNGVIRGYQIGYRENSPGSNGQYSIVEMKATGDSEVYTLDNLKKFAQYGVVVQAFNRAGTGPSSSEINATTLE
  soluble on expression in E. coli: soluble
